test: soluble on expression in E. coli; label from the status in PepcDB or PDB records

Sequence | soluble on expression in E. coli
MKIFVCEDDQRQREHMVSIIKNYIMIEEKPMELALATNDPYEVLEQSKELNDIGCYFLDIQLEADMNGIKLASEIRKHDPVGNIIFVTSHSELTYLTFVYKVAAMDFIFKDDPSELKMRIIDCLETAHTRLKLLSKESNVDTIELKRGSNSVYVQYDDIMFFESSTKSHRLIAHLDNRQIEFYGNLKELAQLDERFFRCHNSFVINRHNIESIDSKERIVYFKNGENCFASVRNVKKI | not soluble
MHKTHSTMSGKSMKVIGVLALQGAFLEHTNHLKRCLAENDYGIKIEIKTVKTPEDLAQCDALIIPGGESTSMSLIAQRTGLYPCLYEFVHNPEKVVWGTCAGLIFLSAQLENESALVKTLGVLKVDVRRNAFGRQAQSFTQKCDFSNFIPGCDNFPATFIRAPVIERILDPIAVKSLYELPVNGKDVVVAATQNHNILVTSFHPELADSDTRFHDWFIRQFVSN | soluble
MREAMYWKPLGDGRVRCELCPLRCIIDEGKRGSCKIRINKGGKLYTLNYGKVSSIALDPIEKKPLFHFWPGSCALSIGTVGCNMHCKHCQNWEISQADESFPYLQDATPEAIVSLAKHYECESIAYTYNEPTIWYEFVLDTAKLARKEGLNNILVTNGYINEEPFRELAPYIDAMNIDIKAFDDKFYMKIASVPSGEPSRRIAEIAKKEFKIHVELTYLIIPTLNDKEEEIREFARWVVENLGDDTPVHFSRFFPHYKLLNLPPTPIETLEKAYKIAKEEGLKFVYLGNVPGHPGENTYCPSCGKLLIERWGFDIIRYDIVDGKCKYCGEKIPIVGKYQKKKYRGMWW | soluble
MSLVELQEIFDVSYGSKLDLNKMSSFNPTINFVGRSGKNNGVTASVDLLKNTKPYPAGLLTVALGGSVLSTFLQNKPFYTAQNVAVLNPKTEMTEQQKLFYCAAIFANAYRFSACGREANRTLRQLFVPSLDEIPSWVESVNLNPSAGVTEPKLKESLDLPVVRQSKRLDEIFTIQNGIAATKLKEFEQRQKDTVVYIRPASTQARTLRSYIARDSVDEKHIFPCHTLFTSTNGEGSHTYSYVSTCEFVANSDVAVLTPIQSDMPIEVKLYYAKCITANRYLFSYGRKPKGEKLKSIMLPYFDQQEDFDYICRFIHTLLFSNNLEGHHHHHH | soluble
MGRVDGLDKFKGLFDALEPKSEGQRELKEALLSDVDLVGVFGPTGTGKSLFSIVYGVSMTAEGRFRRVVLARPVIDVVTGRELTVMTDAQSYRRLAAEYLMDILSGFLGEERVREILSSDSLVLVDPHFLRGRTFDNSVIIVDDSQSMPPEAIVEIITRLGTGSKLIVIGDPVFQRTSEPGLDGASMAREILSNEPTAEVVDLGLKDIVRPGAKRGVKMLMELLMRRRTLNQAEKEVIEAARMHSPDADIITAVDLQDAKRKWGIESDHVPDVLVVVKEGHLGRFIGRGGERIEKIEGETGLRIRAIEHTLDLKEIVRAIHPVSWIHKHVIDFDFAGPQLKIKVSKEHMGPMLGQKGAHIRFLDEIVRKLLGVGVFVEEVEERRGRRRRR | not soluble
GVTGADGTTTFTLKQDQTTGLKTELTAALDSSSSTKSTLPVVFTVLTSPDSPKAKFWGHMAETATGDDGLIYRRPLLRDENSATTSIGTLVEEGEAWSTFPSGQANDTSINGCGAEYVPTDNELRAIYAHQGSSALHDAIGWPVSRFYISNTVADTFTQTFTYDVVSLKTGDETQMPSSGGALLSCR | not soluble
MSLTVLPVPDLLARALDRRAGLPGAGTTFFRAVHITETGGLWTLDVAGDAGILSLYTDLSAEAERDLAAQCGEAAGLSSVYLKRRPPEAKHLANVAREVLSPPDPLWGTARPEVTALEEGVPFLIRPGADLSVGLFSDARPARRWVRGHAAGQRVLNTFAYTCGFGLNAALAGAASVKNVDLSRKVLGWGQQNYALSGLAAPDHDFLYGDVFEWLTRLQRRGDLFDLVILDPPGFARSKAGTWRAEKDYGRLMAQASAVTAPGGEVLALLNHAGVSAGGLTHMVEQGLSTAGRRGHLTETLGPGRDYPGATHLKVQRWSLNEGGSHHHHHH | soluble
MAQEEEDVRDYNLTEEQKAIKAKYPPVNRKYEYLDHTADVQLHAWGDTLEEAFEQCAMAMFGYMTDTGTVEPLQTVEVETQGDDLQSLLFHFLDEWLYKFSADEFFIPRVGRRIFIVQAPSGNRSQSNNIFSNAGL | soluble
MLLSTKSKKLIRTQYFTTPGILMRGRSHPVGDFKVQNKNPHFNDISVGKRIRYRRKMLGLSQKQLGHSLGVTFQQIQKYEKGINRVGAGRLQEIATLLDVSISFFYADISTKEHVSYPRNKGISNKEEDFLLKSFRELKPKKQKAILCLLSD | not soluble
MPLSKRRAAGRINGLKGPPAKKRKEIERHEALLMHPLAYTAEQYEQVAEESKFYKNCFETTAAENVELLKSNDQLKKELELLKNQQGNQLKVDMKFKSQIESTRQSNMTLLREREIWQNRYYDVLAEKLALSARVKSMMGDIVESVEVPNDSNGNTWELREDLEIDRSARRKTEEEPKAQKMNSTRGSLPRNQCSTRSNNQTPNEMLLKMAIGLDTTSVN | not soluble
MESTGSVGEAPGGPRVLVVGGGIAGLGAAQRLCGHSAFPHLRVLEATARAGGRIRSERCFGGVVEVGAHWIHGPSRGNPVFQLAAEYGLLGEKELSQENQLVETGGHVGLPSVSYASSGASVSLQLVAEMATLFYGLIDQTREFLHAAETPVPSVGEYLKKEIGQHVAGWTEDEETRKLKLAVLNSFFNLECCVSGTHSMDLVALAPFGEYTVLPGLDCTFSKGYQGLTNCMMAALPEDTVVFEKPVKTIHWNGSFQEAAFPGETFPVSVECEDGDRFPAHHVIVTVPLGFLREHLDTFFDPPLPAEKAEAIRKIGFGTNNKIFLEFEEPFWEPDCQLIQLVWEDTSPLEDAAPELQDAWFRKLIGFVVLPAFASVHVLCGFIAGLESEFMETLSDEEVLLCLTQVLRRVTGNPRLPAPKSVLRSRWHSAPYTRGSYSYVAVGSTGGDLDLLAQPLPADGAGAQLQILFAGEATHRTFYSTTHGALLSGWREADRLLSLWAPQVQQPRPRL | not soluble
GSMFTPKPPQDSAVIKAGYCVKQGAVMKNWKRRYFQLDENTIGYFKSELEKEPLRVIPLKEVHKVQECKQSDIMMRDNLFEIVTTSRTFYVQADSPEEMHSWIKAVSGAIVAQRGPGRSASSEHP | soluble
MSLKTHTLPLLLSCTLFLIGACTSMPPEIRNFSAVDIPYQPVSQNAETYKDAPVRWGGTVIEVENETDFSLMQVLFHPLDRSGYPETRKPGEGRFAVEINEFLDPAIYTKGVEVTVIGTVKGNIERTIGNKTIHIPLITAKTIHLWPQAYREDNLYRYGPYPGYYGYGYPFFYNGYYRPYRFWWEGHHHHHH | not soluble
MAYFFKNLVFEGGGVKGIAYIGALEVLQEEKIFPKIKRVAGTSAGAIMAVLIGLGYTPSEIKEIMWCLNFKNFMDDSWGIIQDTKRLIEKFGWYKGDFFRNWLGDLIKAKTGNSESTFADLAAMKGENKFLDISLIGTNLSTGFSEIFSAEHTPRICIADAARISMSIPLFFAAKRNFRNDVYVDGGMLNNYPVKVFDRTKYVTKNFTRTGYYEPINKKLEKRPRKIADYVYNKETLGFRLDSKEKIAFFRDNAEPPHRDIDSFFDYTVSLFGTLLSAQDDVHLHSDDWQRTIYIDTLGVKTTDFAISDAQKKALLESGRSYTQSYLEWYNNSEEKVNK | not soluble
MFERVREDIQSVFHRDPAARNALEVLTCYPGLHAVWLHRLAHGLWTSGWKWLARLVSNFGRWMTGIEIHPGARIGRRFFIDHGMGIVIGETAEIGDDVTLYQGVTLGGTTWNKGKRHPTLGNNVVVGAGAKVLGPFTVGEGAKVGSNAVVTKEVPPGATVVGIPGRIIMREDSEQQAKRQAMAEKLGFDAYGVSQDMPDPVARAIGQLLDHLQAVDGRLEGMCQALTALGSDYCAKDLPVLREEDFAGVKDEDGNPAA | not soluble
MAHHHHHHMLQQLNEEKNIRKALESRIREVNVSLRRYGVCIADAKEVTNESREFSEATDAFILAALEEKDTMDGDLCAKLQQQLRVKQRLTELRHQHQRKLDDMLRKYELIKTGRTTANNGAGADNNMLHPGLVDEAAAQQIKELLHRKDEEIERVIKEKEKTCDRIVKKLNKCELRIKELEATLEEERVQSTEERQELDRENRELQRYNQQLSVELETLRGQLSEMKEEMDFMERAKSAEIERWKEEAANGAGRLEEMRFKMAAYSELQKSYDRLQEQLQRTEVSLKEKSDNLENTRQMVKWSNSLLATEKQKVEQMEMMLKQQEVEMRRREEQLKSEMMNDINKQVAANNRRMQEQAAQYQELISQEQDKQKSIMKKVKSSRKETQKAAQRYDEMILENEALLSKLEELKVTSMRIFLEKQEAQRELEALRPTKHVANRRL | not soluble
MFHGIPATPGIGAPGNKPELYEEVKLYKNAREREKYDNMAELFAVVKTMQALEKAYIKDCVSPSEYTAACSRLLVQYKAAFRQVQGSEISSIDEFCRKFRLDCPLAMERIKEDRPITIKDDKGNLNRCIADVVSLFITVMDKLRLEIRAMDEIQPDLRELMETMHRMSHLPPDFEGRQTVSQWLQTLSGMSASDELDDSQVRQMLFDLESAYNAFNRFLHALEHHHHHH | not soluble
MDYCCVGRNNNDSVPSEGTLLRVKTLMKMANHPRPGDIIQESLDELNVSLREFARAMEIAPSTASRLLTGKAALTPEMAIKLSVVIGSSPQMWLNLQNAWSLAEAEKTVDVSRLRRLVTQ | soluble
MGSDKIHHHHHHMMAFITVKPEIKNNLANVAKELKIDEELLKSANRSAQKHQLYCPGYVIEEHSGKELQTIQDIKRFLQPRQLKLSDSWIEQEKIYDDSAVEKEIKKIIDVFPFVSCREIGRSVLGRPIWELKAGGEHAVKKVHMNASFHANEWITTSVLLKWFKEYCMSLCCNSPFFGFSPIKLFNSTSLSLVPLVNPDGVDLVLNGSEVMGARRDELERLNEHRPNFNEWKANINGVDLNKQFPSLWEIEKYRKPTAPSYRDFPGISPLTEPESIAMYRLITENPPDRLLALHTQGEEIYWGYKGLEPEESAAVIKEFEELSGNIYKGVRDIDSYAGFRDWFIHHYFKEGYTVELGKGQNPLPFQQFSHIYNATSGILWRALFFHE | not soluble
MKKVSPSYLKHQFLIAMPHMHDENFAQTLTYVVEHNANGAMGLVINRPQSLTLADVLEQLRPELPAPKRCQEIAIHAGGPVQTDRGFVLHPSGQTFQATVDLPGGISLSTSQDVLFSIADGYGPDQNVITLGYAGWDAGQLDAEMADNAWLTCSFDPAILFDVDSDQRLDAAARRLGINLALISTQAGHAAAALEHHHHHH | not soluble
MAHHHHHHMTNFETFQQFYVRDWTPKARPVDAAASVVAPCDGQVLAVNANVESTSLVQVKGLTYGMRSLLQDTPPPLNTDTHRRVAVVLHMRNKDFHHVIAPLSFACEKSIYVPGSLLPTTSAGYHWIPAVLALNERLILQGRSSDKARLPVYMALVGSTLTGRITLYMDKRVRTNYLDPPAYAVHSPYASKPVVARGERLATFNWGSSVVLVMDVPKSCKPLKRPGDVVKAGEALFQF | not soluble
MASIKLKFRPSSVKGKKGVLSYQIIHYRLTRLIKTSYRIMPSEWDDSTGSLLISTQSECKARLLLIRDQTNWEMTRLQGIINDLERTGVEYTIDDIVASFRKIPSVESVFNFMQRCINKLERQKRGRTAEGYTSTMNSFIQFRKNEDLSFEAFDSELMEMYEAYLKEKGLVKNSTSYYMRIWRSVYNLAVEQGYTTDKKPFKHVYTGIDKTVKRAVPFKIIKMIKELDLSFEPQLELARDIFLFSFYTRGMSFIDMAHLKKSNLQNGILTYSRKKTGQRLTILWEELMQEIVDKYKDDTSEYLLPILRYCDINDRKQYKLRAKQIGRGLNKIGLRLELKAPLTFYVARHSWASIAQDRKVSTDIIREGLGHDNEKTTHIYLASISTSQIDRANQIILRGL | not soluble

Source: the DeepSol protein solubility set
